Measured values as given in paper PMC5719079.

Experiments:
[1] = target: Human recombinant hexaHis-tagged SIRT2 containing residues 50-356 (human) (UniProt Q8IXJ6); experiment: ELISA; plate coated with 5 μg/ml SIRT2 overnight in PBS; TPPP/p25 or tubulin added in serial dilution, detected by TPPP/p25 or tubulin antibody; apparent Kd from a single binding site hyperbola; MZ242, MZ25 and SH1 up to 30 μM did not influence the binding of 125 nM TPPP/p25 significantly
[2] = target: Tubulin Polymerization Promoting Protein (TPPP/p25) (human) (UniProt O94811); experiment: ELISA; plate coated with 5 ug/ml TPPP/p25 overnight in PBS; tubulin added at a serial dilution; bound tubulin detected by monoclonal tubulin antibody and HRP-conjugated secondary antibody; Kd from the saturation curve by a single binding site hyperbola model; apparent
Sequence of UniProt O94811 (O94811 whole entry): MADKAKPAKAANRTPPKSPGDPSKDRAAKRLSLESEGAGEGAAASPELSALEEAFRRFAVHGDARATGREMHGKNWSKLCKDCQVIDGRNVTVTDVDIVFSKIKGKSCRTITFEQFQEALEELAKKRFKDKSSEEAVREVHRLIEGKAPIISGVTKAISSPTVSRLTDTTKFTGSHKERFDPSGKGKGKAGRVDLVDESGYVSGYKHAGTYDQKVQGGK

Sequence of UniProt Q8IXJ6 (Q8IXJ6 50-356): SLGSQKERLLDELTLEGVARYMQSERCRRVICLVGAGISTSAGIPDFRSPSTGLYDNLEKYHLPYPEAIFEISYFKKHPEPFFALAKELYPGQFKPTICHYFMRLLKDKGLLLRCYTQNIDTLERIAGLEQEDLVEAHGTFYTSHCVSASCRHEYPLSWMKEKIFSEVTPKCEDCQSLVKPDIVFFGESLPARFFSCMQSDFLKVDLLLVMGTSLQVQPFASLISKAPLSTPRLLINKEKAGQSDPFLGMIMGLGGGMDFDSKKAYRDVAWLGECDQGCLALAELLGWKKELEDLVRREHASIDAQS

| Kd [1] | Kd [2] | Substance |
| --- | --- | --- |
| > 2000 nM | – | Tubulin prepared from bovine brain (from UniProt Q6B856 1-445) (complex) |
| – | 10 nM | tubulin (from UniProt Q6B856 1-445) (complex) |
